Source: PMC8571081

Key:
[1] = molecular target: Recombinant mouse IL-12Rβ2-Fc chimera protein (mouse) (UniProt P97378); test: SPR; IL-23R-Fc and IL-12Rβ2-Fc captured on a Protein A chip (~150 RU); HIL-12 (0.3-5 nM) or HIL-23 (15-1000 nM) variants injected at 30 μl/min; 25 °C, PBS pH 7.4, 0.05% P20; multi-cycle; 1:1 binding model; Biacore X100
[2] = molecular target: Recombinant mouse IL-23R-Fc chimera protein (mouse) (UniProt Q8K4B4); test: as above
Sequence of UniProt Q8K4B4 (Q8K4B4 24-374, change not shown): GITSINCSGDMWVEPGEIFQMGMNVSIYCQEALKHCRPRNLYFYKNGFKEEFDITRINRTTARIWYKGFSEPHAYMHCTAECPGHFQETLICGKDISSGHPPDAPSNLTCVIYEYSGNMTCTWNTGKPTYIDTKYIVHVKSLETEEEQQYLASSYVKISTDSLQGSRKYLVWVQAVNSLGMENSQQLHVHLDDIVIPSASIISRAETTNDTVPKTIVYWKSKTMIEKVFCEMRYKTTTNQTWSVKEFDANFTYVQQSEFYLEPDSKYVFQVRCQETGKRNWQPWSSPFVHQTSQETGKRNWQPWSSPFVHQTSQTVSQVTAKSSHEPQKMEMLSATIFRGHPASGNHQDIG

Sequence of UniProt P97378 (P97378 24-637, stated change not applied): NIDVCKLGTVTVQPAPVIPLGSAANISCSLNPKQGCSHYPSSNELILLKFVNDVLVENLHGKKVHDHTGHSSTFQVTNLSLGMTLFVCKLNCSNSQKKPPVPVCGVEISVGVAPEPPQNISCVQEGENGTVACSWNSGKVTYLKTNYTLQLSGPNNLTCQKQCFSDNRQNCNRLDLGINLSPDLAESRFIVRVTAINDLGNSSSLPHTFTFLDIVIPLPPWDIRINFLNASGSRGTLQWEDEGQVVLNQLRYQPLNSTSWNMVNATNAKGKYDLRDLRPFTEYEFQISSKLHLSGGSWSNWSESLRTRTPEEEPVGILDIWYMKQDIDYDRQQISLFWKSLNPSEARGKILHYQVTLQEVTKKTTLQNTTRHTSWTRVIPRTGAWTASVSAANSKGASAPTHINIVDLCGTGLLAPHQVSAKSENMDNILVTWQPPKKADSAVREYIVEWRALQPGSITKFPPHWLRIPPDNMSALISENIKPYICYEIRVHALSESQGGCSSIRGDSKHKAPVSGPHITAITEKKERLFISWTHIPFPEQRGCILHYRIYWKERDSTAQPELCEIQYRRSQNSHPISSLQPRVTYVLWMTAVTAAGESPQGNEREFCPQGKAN

For “HIL-12D36K/W37K/T38K, purified with Twin-Strep-tag (ligand)”, the Kd [1] was 0.84 nM, the koff [1] was 0.0027 s⁻¹ and the kon [1] was 3.2e+06 M⁻¹ s⁻¹.

In the case of “HIL-23D36K/W37K/T38K, purified with Twin-Strep-tag (from UniProt P43432 23-335) (ligand)”, the Kd [2] is reported as 57 nM, the koff [2] is reported as 0.0011 s⁻¹ and the kon [2] is reported as 19000 M⁻¹ s⁻¹.

“murine Hyper-IL-23 (HIL-23), purified with Twin-Strep-tag (from UniProt P43432 23-335) (ligand)” showed a Kd [2] of 40 nM, a koff [2] of 0.0012 s⁻¹ and a kon [2] of 30000 M⁻¹ s⁻¹.

“murine Hyper-IL-12 (HIL-12), purified with Twin-Strep-tag (ligand)” showed a Kd [1] of 0.987 nM, a koff [1] of 0.0019 s⁻¹ and a kon [1] of 1.9e+06 M⁻¹ s⁻¹.
